# US20260125455A1 (CLEVELAND CLINIC FOUNDATION, published 2026)
# B1: MoC601 HuG4K (chimeric C601 antibody) (antibody, human IgG4 S228P, kappa, V domains shown)
# VH: QVQLQQSGAELVKPGASVKISCKASGYAFSDYWMNWVKQRPGKGLEWIGQIYPGDDDTNYNGKFKGKATLTADKSSSTAYMQLSSLTSEDSAVYFCAREGYYGYTYVEYFDVWGTGTTVTVSS
# VL: QIVLTQSPAIMSVSPGEKVTLTCSASSSVSYMHWYQQKSGTSPKRWIYDTSKLASGVPARFSGSGSGTSYSLTISSMEAEDAATYYCQQWTSNPLTFGAGTKLELRR
# notes: also called chimeric antibody; chimeric 1C9
# B2: C601HFKC4 HuG4K (antibody, human IgG4 S228P, kappa)
# heavy: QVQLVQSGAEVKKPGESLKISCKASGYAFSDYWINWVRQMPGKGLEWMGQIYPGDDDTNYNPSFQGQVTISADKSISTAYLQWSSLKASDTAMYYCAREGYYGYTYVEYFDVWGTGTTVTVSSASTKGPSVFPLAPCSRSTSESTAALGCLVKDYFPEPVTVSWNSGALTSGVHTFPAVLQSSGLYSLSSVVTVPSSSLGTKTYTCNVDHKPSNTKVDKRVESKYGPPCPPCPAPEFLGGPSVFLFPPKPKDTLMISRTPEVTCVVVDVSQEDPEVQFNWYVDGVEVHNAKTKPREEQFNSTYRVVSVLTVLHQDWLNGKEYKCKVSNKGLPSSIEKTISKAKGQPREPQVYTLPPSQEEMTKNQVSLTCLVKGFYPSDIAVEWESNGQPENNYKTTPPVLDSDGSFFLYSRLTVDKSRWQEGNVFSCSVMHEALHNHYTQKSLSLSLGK
# light: QIVLTQSPATLSLSPGERATLSCRASSSVSYLHWYQQKPGQSPRLWIYDTSKRATGIPARFSGSGSGTDYTLTISSLEPEDFAVYYCQQWTSNPLTFGQGTKLEIKRTVAAPSVFIFPPSDEQLKSGTASVVCLLNNFYPREAKVQWKVDNALQSGNSQESVTEQDSKDSTYSLSSTLTLSKADYEKHKVYACEVTHQGLSSPVTKSFNRGEC
# notes: also called 3713; clone 3713
# Tests used:
# [1] = molecular target: T1, human complement protein C6 (human, UniProt P13671 22-934); test: ELISA, C6-coated wells, purified antibody
# T1 construct: also called human C6; C6 antigen
# T1 sequence (P13671 22-934 limits assumed): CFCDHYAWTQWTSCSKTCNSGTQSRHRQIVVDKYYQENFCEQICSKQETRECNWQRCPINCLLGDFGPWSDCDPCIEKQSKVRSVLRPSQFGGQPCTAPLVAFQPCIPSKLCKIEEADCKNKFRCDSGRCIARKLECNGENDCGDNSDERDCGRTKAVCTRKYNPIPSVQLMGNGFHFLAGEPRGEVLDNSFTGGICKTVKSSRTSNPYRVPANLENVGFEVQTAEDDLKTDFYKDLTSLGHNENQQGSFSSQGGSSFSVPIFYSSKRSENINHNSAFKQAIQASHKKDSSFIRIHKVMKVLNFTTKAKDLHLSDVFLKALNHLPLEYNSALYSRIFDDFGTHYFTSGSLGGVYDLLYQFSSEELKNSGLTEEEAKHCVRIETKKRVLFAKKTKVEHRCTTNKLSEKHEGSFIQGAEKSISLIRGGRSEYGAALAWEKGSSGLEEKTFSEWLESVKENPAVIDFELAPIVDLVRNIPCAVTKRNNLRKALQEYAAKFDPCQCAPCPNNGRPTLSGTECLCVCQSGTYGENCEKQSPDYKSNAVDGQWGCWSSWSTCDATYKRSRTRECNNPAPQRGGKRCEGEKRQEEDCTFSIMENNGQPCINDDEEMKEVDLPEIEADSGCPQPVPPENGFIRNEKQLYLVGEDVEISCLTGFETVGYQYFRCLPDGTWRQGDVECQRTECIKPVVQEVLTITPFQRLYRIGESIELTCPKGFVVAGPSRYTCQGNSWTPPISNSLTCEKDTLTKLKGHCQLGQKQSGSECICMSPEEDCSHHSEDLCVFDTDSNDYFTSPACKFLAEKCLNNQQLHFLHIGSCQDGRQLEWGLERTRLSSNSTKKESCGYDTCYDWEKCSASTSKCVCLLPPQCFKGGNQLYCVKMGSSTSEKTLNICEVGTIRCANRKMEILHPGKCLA
# [2] = molecular target: T1, human complement protein C6; test: BLI (Octet RED384), antibody on Protein G biosensors, C6 0.27-5 nM, 1:1 fit, experiment 2
# Description: (§1) The binding of the purified chimeric molecules, MoC601 HuG4K and MoC601 HuG1KFab, was also confirmed by ELISA, where the anti-human IgG (Fab-specific) secondary reagent was used. The control mouse antibody bound as previously (EC₅₀ 0.11 nM). The EC₅₀ for purified MoC601 HuG4K (0.27 nM) was similar to that obtained for the MoC601 HuG4K supernatant sample above. […] The EC₅₀ value for the Fab molecule (0.48 nM) was higher than for the antibody, which would be expected since the Fab is unable to bind bivalently to the antigen on the well. A C6-binding assay was also set up on the Octet RED384 instrument. […] However, MoC601 MoG1K could be stably loaded onto anti-mouse Fc (AMC) biosensors. Concentrations of the mouse and chimeric antibodies were adjusted to give similar levels of loading on to the AMC and
# Protein G biosensors respectively in subsequent experiments. There was no non-specific binding of C6 protein to unloaded sensors or sensors loaded with an isotype control antibody. […] The mouse and chimeric datasets were processed by subtracting the no antigen controls and the data were fitted to a 1:1 binding model. Binding curves giving Req/Rₘₐₓ ratios>90% or showing poor fitting were excluded from analysis. A second full kinetic experiment was performed with an adjusted concentration range (six points, 0.27-5 nM) and an extended dissociation step of 20 minutes.
# [3] = molecular target: T1, human complement protein C6; test: BLI (Octet RED384), antibody on Protein G biosensors, C6 0.16-10 nM, 1:1 fit, experiment 1
# Description: as §1
# Protein G biosensors respectively in subsequent experiments. There was no non-specific binding of C6 protein to unloaded sensors or sensors loaded with an isotype control antibody. A full kinetic experiment was run for purified MoC601 MoG1K and MoC601 HuG4K antibodies using seven concentrations of C6 (0.16-10 nM) and association and dissociation steps of 20 and 15 minutes respectively. The mouse and chimeric datasets were processed by subtracting the no antigen controls and the data were fitted to a 1:1 binding model. […]
# [4] = molecular target: T1, human complement protein C6; test: C6-binding ELISA, A650 nm; sample 'mouse serum' (28 days at 37 C)
# Description: (§2) For the serum stability assessment, samples of the purified candidate antibodies are normally incubated in mouse, human and cynomolgus serum at 37 C for 28 days and then tested in an antigen-binding ELISA. Since the anti-C6 antibodies are expected to bind to both human and cynomolgus C6 but not mouse C6, we anticipated that incubating in human or cynomolgus sera would reduce ELISA binding due to occupation of the antibody binding sites by C6 protein from the sera. Therefore, the chimeric and humanized antibodies were tested with human and mouse sera and with human sera from which the C6 protein has been depleted. […]
# (§3) Binding ELISAs used Nunc Maxisorp 384-well plates, wells coated with C6, C5b,6 complex or C5 (Complement Technology Inc, TX) and goat anti-human IgG (Fab specific) peroxidase secondary antibodies (Sigma-Aldrich, A0293) for detection. For the thermal stability assay, IgG supernatants were diluted to their EC₈₀ concentration, incubated at different temperatures for 10 min and C6 binding measured by ELISA with the binding signal plotted against temperature. Kinetics of C6 binding were measured by capturing antibodies from supernatant samples using Protein G biosensors and performing a 20 min association step with 2.5 nM C6 and a 20 min dissociation step using the Octet RED96. […]
# [5] = molecular target: T1, human complement protein C6; test: ELISA, expression supernatant, anti-human IgG (Fab-specific) detection
# Description: The chimeric molecules, MoC601 HuG4K and MoC601 HuG1KFab, were tested for C6 binding in the form of expression supernatants. In this experiment, the human molecules were detected with an HRP-conjugated goat anti-human kappa chain reagent, which gave relative low signals. However, the binding of both chimeric molecules to C6 was confirmed. The EC₅₀ value for MoC601 HuG4K (0.43 nM) was higher than that of the mouse antibody (0.07 nM), though this was lower than in previous experiments. A further experiment was performed to find a more suitable anti-human antibody detection reagent. MoC601 HuG4K from expression supernatant was detected with three different secondary antibodies. Both anti-human IgG Fc-specific and Fab-specific detection gave higher signals than the anti-kappa chain reagent but the Fc-specific detection yielded a very low EC₅₀ (0.03 nM).
# [6] = molecular target: T1, human complement protein C6; test: C6-binding ELISA, A650 nm; sample 'human serun' (human serum, 28 days at 37 C)
# Description: as §2, §3
Binder,EC50 [1],Kd [2],kon [2],Kd [3],kon [3],EC50 [4],EC50 [5],EC50 [6]
B1,0.2 nM,0.35 nM,690000 M⁻¹ s⁻¹,0.36 nM,690000 M⁻¹ s⁻¹,0.19 nM,0.3 nM,–
B2,–,–,–,–,–,–,–,0.19 nM
